Experiment [1] deals with CRIPT^S4 (CRIPT mutants with substitutions to any of the first four cysteines), co-IP from mitotic HeLa cells. In words: co-IP.
Experiment [2] deals with CRIPT^L4 (CRIPT mutants with substitutions to any of the last four cysteines), co-IP from mitotic HeLa cells. In words: co-IP.

As to “β-tubulin, endogenous, mitotic HeLa cells (from UniProt P07437 1-444) (natural protein)”, the fold of tubulin brought down relative to wild-type CRIPT in experiment [1] and in experiment [2] was above 2 fold throughout.
Take “α-tubulin, endogenous, mitotic HeLa cells (from UniProt P68363 1-451) (natural protein)”: the fold of tubulin brought down relative to wild-type CRIPT in experiment [1] and in experiment [2] was above 2 fold in each case.

These data come from paper doi:10.1101/869123.
